{"source": "paper PMC3231483", "key": {"thrombin [1]": {"target": "T1, thrombin (human, UniProt P00734;P00734 328-363;364-622)", "assay": "guided mode resonance sensor (kinetic, Langmuir 1:1); 0.50 uM thrombin; ka 1.52e5 M-1s-1, kd 0.61e-1 s-1; Aptamer immobilized from 1 uM in PBS; assay buffer, salt and temperature not given in the material (Tris-HCl pH 7.4 and sodium phosphate listed as reagents); re"}, "thrombin [2]": {"target": "T1, thrombin", "assay": "guided mode resonance sensor (kinetic, Langmuir 1:1); 1.00 uM thrombin; ka 0.18e5 M-1s-1, kd 1.54e-1 s-1; Aptamer immobilized from 1 uM in PBS; assay buffer, salt and temperature not given in the material (Tris-HCl pH 7.4 and sodium phosphate listed as reagents); re"}, "thrombin [3]": {"target": "T1, thrombin", "assay": "guided mode resonance sensor (kinetic, Langmuir 1:1); 0.25 uM thrombin; ka 2.06e5 M-1s-1, kd 1.05e-1 s-1; Aptamer immobilized from 1 uM in PBS; assay buffer, salt and temperature not given in the material (Tris-HCl pH 7.4 and sodium phosphate listed as reagents); re"}, "thrombin [4]": {"target": "T1, thrombin", "assay": "guided mode resonance sensor (kinetic, Langmuir 1:1); 0.75 uM thrombin; ka 1.83e5 M-1s-1, kd 0.30e-1 s-1; Aptamer immobilized from 1 uM in PBS; assay buffer, salt and temperature not given in the material (Tris-HCl pH 7.4 and sodium phosphate listed as reagents); re"}, "thrombin [5]": {"target": "T1, thrombin", "assay": "guided mode resonance sensor (Langmuir linear regression); 0.25-1 uM thrombin; order of magnitude only; Aptamer immobilized from 1 uM in PBS; assay buffer, salt and temperature not given in the material (Tris-HCl pH 7.4 and sodium phosphate listed as reagents); re"}, "thrombin [6]": {"target": "T1, thrombin", "assay": "guided mode resonance sensor (kinetic, Langmuir 1:1); 1.50 uM thrombin; ka 0.20e5 M-1s-1, kd 1.33e-1 s-1; Aptamer immobilized from 1 uM in PBS; assay buffer, salt and temperature not given in the material (Tris-HCl pH 7.4 and sodium phosphate listed as reagents); re"}}}
{"binder": "AGTCCGTGGTAGGGCAGGTTGGGGTGACT (structured_DNA, 5' NH2)", "note": "[29-mer thrombin aptamer (TBA)]", "values": [{"measurement": "Ka", "setting": "thrombin [1]", "result": "2.5 10^6 M^-1"}, {"measurement": "Ka", "setting": "thrombin [2]", "result": "0.12 10^6 M^-1"}, {"measurement": "Ka", "setting": "thrombin [3]", "result": "1.95 10^6 M^-1"}, {"measurement": "Ka", "setting": "thrombin [4]", "result": "6.18 10^6 M^-1"}, {"measurement": "Ka", "setting": "thrombin [5]", "result": "~1 10^6 M^-1"}, {"measurement": "Ka", "setting": "thrombin [6]", "result": "0.15 10^6 M^-1"}]}
